Laboratory results from US20220089755A1 (COMMISSARIAT A L ENERGIE ATOMIQUE ET AUX ENERGIES …, published 2022).

How the values were obtained:
[1] = target: T1, endothelin receptor subtype A (ETA-R) expressed on the surface of Gli-7 glioblastoma cells (human, UniProt P25101 21-427); assay: flow cytometry on Gli-7 glioblastoma cells
T1 construct: whole, on cells; also called ETA-R on Gli-7; ETAR on glioblastoma cells
T1 sequence (looked up): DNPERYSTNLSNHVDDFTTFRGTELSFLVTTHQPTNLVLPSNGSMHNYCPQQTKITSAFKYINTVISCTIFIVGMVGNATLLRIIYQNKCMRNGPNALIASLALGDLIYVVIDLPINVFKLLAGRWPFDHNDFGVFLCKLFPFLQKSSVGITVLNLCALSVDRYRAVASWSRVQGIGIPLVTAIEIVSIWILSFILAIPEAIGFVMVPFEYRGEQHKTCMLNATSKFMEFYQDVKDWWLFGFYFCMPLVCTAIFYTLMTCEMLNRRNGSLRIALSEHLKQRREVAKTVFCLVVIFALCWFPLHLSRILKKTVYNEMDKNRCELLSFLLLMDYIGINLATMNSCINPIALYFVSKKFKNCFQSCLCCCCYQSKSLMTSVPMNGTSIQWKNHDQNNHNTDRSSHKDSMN

[2] = target: T2, endothelin receptor subtype A (ETA-R) expressed on stably transfected CHO cells (CHO-ETAR) (UniProt P25101 21-427, limits assumed); assay: flow cytometry on CHO-ETAR cells, apparent Kd, one-site fit, with or without 100 nM ET1
T2 construct: whole, on cells; also called endothelin type A receptor
T2 sequence (looked up): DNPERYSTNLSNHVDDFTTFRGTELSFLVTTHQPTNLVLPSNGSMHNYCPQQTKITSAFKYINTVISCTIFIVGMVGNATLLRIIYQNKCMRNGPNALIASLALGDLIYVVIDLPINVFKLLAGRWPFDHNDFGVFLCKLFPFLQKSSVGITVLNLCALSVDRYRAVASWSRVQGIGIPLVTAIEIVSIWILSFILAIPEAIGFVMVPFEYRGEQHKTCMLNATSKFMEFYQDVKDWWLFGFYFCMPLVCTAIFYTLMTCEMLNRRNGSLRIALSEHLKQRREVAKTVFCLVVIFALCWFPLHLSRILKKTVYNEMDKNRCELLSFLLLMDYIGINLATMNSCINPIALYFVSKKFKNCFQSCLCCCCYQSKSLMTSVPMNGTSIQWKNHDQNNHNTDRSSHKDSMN
Protocol: The fluorescence is quantified by flow cytometry on an FACSCalibur™ (BD Bioscience). A range of concentrations of antibodies lying between, at a maximum, 1 μM and, at a minimum, […] was incubated for 2 hours at 4° C. in the presence or not of 100 nM ET1 (preincubated for 30 minutes at 4° C.). At 90% confluence, the cells are detached in the presence of versene and then aliquoted in tubes (300 μl/300,000 cells) in the presence of a saturation buffer (PBS-SNC 5%-BSA 0.1%) stored at 4° C. After three washes in PBS buffer, 300 μl of secondary antibody labeled with Alexa Fluor™ 488 (AF-488) diluted to 1/400 was added and incubated for 60 minutes at 4° C. (Goat anti-mouse IgG, Invitrogen-ref A10684). For each antibody concentration point, after three washes in PBS, 10,000 cells were counted with flow cytometry.
The data were analysed in the GraphPad Prism software and the curves modelled according to the parameter: a specific binding site. […] The binding of RA63 was therefore not modified in the presence of ET1.

B1: Rendomab-A63 (antibody, mouse IgG2b, V domains shown)
VH: EVQLVESGGGLVQPKGSLKLSCAASGFTFNIYAMNWIRQAPGKGLEWIARIRSKSNNYATYYADSVKDRFTISRDDSQNMVYLQMNNLKTEDTAMYYCVSSYYSGSFFAYWGQGTLVTVSA
VL: DVLMTQTPLSLPVSLGDQASISCRSSQSIVYSNGKIYLEWYLQKPGQSPKLLIYKVSNRFSGVPDRFSGSGSGTDFTLKISRVEAEDLGVYYCFQGSHLPLTFGAGTKLELKR
notes: also called RA63; monoclonal murine antibody from the hybridoma CNCM I-5250
With B1 as the binder, how does the Kd [1] read?
Its Kd is roughly 15 nM.

And the Kd [2]?
The Kd was roughly 0.5 nM.
